Target: androgen receptor (UniProt P10275)
Test: cell-based or functional assay

Chain of UniProt P10275 (P10275 whole entry): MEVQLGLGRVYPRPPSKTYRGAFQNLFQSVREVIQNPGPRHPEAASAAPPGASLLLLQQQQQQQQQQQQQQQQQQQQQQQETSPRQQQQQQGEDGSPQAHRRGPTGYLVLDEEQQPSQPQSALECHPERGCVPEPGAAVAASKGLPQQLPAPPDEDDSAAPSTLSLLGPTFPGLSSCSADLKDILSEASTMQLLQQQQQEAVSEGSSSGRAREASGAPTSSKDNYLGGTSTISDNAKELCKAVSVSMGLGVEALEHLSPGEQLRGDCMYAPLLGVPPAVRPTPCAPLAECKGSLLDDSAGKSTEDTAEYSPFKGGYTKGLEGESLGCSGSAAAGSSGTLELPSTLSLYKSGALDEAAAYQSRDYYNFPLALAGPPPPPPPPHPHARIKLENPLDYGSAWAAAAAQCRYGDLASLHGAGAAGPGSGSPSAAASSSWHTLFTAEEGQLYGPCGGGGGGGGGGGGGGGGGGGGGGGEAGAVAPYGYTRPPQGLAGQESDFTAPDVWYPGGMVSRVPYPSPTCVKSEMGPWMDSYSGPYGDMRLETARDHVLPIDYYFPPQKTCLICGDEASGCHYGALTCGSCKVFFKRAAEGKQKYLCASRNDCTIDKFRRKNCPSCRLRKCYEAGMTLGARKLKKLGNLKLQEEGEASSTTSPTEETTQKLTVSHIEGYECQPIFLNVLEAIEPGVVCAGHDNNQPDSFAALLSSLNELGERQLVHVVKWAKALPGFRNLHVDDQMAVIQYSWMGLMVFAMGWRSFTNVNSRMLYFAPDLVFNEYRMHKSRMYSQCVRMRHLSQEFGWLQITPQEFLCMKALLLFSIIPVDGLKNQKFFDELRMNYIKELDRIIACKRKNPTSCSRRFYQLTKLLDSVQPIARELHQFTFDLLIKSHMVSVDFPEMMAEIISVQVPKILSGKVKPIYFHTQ

In the case of “androgen receptor complex-associated protein (from UniProt Q58WW2 1-860)”, the luciferase activity, AFP promoter (androgen responsive element) reporter in G2 cells, relative to the control reporter with mutated ARE is reported as 3 to 4 fold.

Source: patent US20050272099A1
